{"source": "the nanobody polyreactivity screen of Harvey et al. (2022)"}
{"test": "yeast display, Sf9 membrane polyspecificity reagent, FACS + sequencing; frameworks hold sequencing errors", "procedure,_shortened": "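Polyreactivity labels are assigned by the sorting gate from which each nanobody was recovered. The gates were low and high (top ~1%), set on anti-HA fluorescence for expression and streptavidin fluorescence for reagent binding. Before sorting, galactose-induced (36–48 hours) yeast display cells were stained for 1 hour at 4 °C with 10% biotinylated, detergent-solubilized Sf9 membrane reagent.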"}
{"sequence": "QVQLVESGGGLVQAGGSLRLSCAASGRTLNAYAMGWYRQAPGKERELVAAITGDDGSTYYADSVKGRFTISRDNAKNTVYLQMNTLKPEDTAVYYCAAVTFSYDGYDYWGQGTQVTVSS", "polyreactivity (PSR sort gate)": "low polyreactivity"}
{"sequence": "QVQLVESGGGLVQAGGSLRLSCAASGRTLNDYTMGWYRQAPGKERELVAAISSSGVRTYYADSVKGRFTISRDNAKNTVYLQMNSLKPEDTAVYYAKRAGYDRRWNYDYWGQGTQVTVSS", "polyreactivity (PSR sort gate)": "high polyreactivity"}
{"sequence": "QVQLVESGGGLVQAGGSLRLSCAASGRTLNYNAMGWYRQAPGKERELVAAITSSGRTYYADSVKGRFTISRDNAKNTVFLQMNSLKPEDTAVYYCAASPYGRSILVRYGYWGQGTQVTVSS", "polyreactivity (PSR sort gate)": "high polyreactivity"}
{"sequence": "QVQLVESGGGLVQAGGSLRLSCAASGRTLPAYAMGWYRQAPGKERELVAAISWGGGSTYYADSVKGRFTISRDNAKNTVYLQMNSLKPEDTAVYYCAVAGYWFAVAEYDYWGQGTQVTVSS", "polyreactivity (PSR sort gate)": "low polyreactivity"}
{"sequence": "QVQLVESGGGLVQAGGSLRLSCAASGRTLPKYVMGCYRQAPGKERELVDAISSSGDSTYYADSVKGRFTISRDNAKNTVYLQMNSLKPEDTAVYYCAKYDRNTYGYWGQGTQVTVSS", "polyreactivity (PSR sort gate)": "low polyreactivity"}
{"sequence": "QVQLVESGGGLVQAGGSLRLSCAASGRTLPPNDMGWYRQAPGKERELVAAITRSGGRTYYADSVKGRFTISRDNAKNTVYLQMNSLKPEDTAVYYCATYNPPYSDYSRYNYWGQGTQVTVSS", "polyreactivity (PSR sort gate)": "high polyreactivity"}
{"sequence": "QVQLVESGGGLVQAGGSLRLSCAASGRTLPRYAMGGYRQAPGKERELVARIRYRGVSTYYADSVKGRFTISRDNAKTSVYLQMNSLKPEDTAVYYCAARASRAGLSGYWGQGTQVTVSS", "polyreactivity (PSR sort gate)": "high polyreactivity"}
{"sequence": "QVQLVESGGGLVQAGGSLRLSCAASGRTLPSYAMGWYRQAPGKERELVAAITGSGGRTYYADSVKGRFTISRDNAKNTVYLQMNSLKPEDTAVYYCAARQDDYGKINYYWGQGTQVTVSS", "polyreactivity (PSR sort gate)": "high polyreactivity"}
{"sequence": "QVQLVESGGGLVQAGGSLRLSCAASGRTLQAYAMGWYRQAPGKERELVAAINSSGGTTYYADSVKGRFTISRDNAKNTVYLQMNSLKPEDTAVYYCAATYWYHGRYYWYAYDYWGQGTQVTVSS", "polyreactivity (PSR sort gate)": "high polyreactivity"}
{"sequence": "QVQLVESGGGLVQAGGSLRLSCAASGRTLRHYAMGWYRQAPGKERELVAAISSTGSSTYYADSVKGRFTISRDNAKNTVYLQMNCLKPEDTAVYYCNAGKKYVDYGVLSSRYYWGQGTQVTVSS", "polyreactivity (PSR sort gate)": "low polyreactivity"}
{"sequence": "QVQLVESGGGLVQAGGSLRLSCAASGRTLRHYAMGWYRQAPGKERELVAAISSTGSSTYYADSVKGRFTISRDNAKNTVYLQMNSLKPEDTAVYYCAADKYTWDAGGVDYWGQGTQVTVSS", "polyreactivity (PSR sort gate)": "low polyreactivity"}
{"sequence": "QVQLVESGGGLVQAGGSLRLSCAASGRTLRKYAMGWYRQAPGKERELVAAITTSGGSTYYADSVKGRFTISRDNAKNTVYLQMNSLKPDDTAVYYCNAARYYAYIGDYWGQGTQVTVSS", "polyreactivity (PSR sort gate)": "high polyreactivity"}
{"sequence": "QVQLVESGGGLVQAGGSLRLSCAASGRTLRQYAMGWYRQAPGKERELVAAISRGGSTTYADSVKGRFTISRDNAKNTVYIQMNSLKPEDTAVYYCAAVSSKGNRHEYDYWGQGTQVTVSS", "polyreactivity (PSR sort gate)": "low polyreactivity"}
{"sequence": "QVQLVESGGGLVQAGGSLRLSCAASGRTLRRNTMGWYRQAPGKERELVAAISWSGGSTYYADSVKGRFTISRDNPKNTVYLQMNSLKPEDTAVYYCAKVPRIGSYEMGYWGQGTQVTVSS", "polyreactivity (PSR sort gate)": "high polyreactivity"}
{"sequence": "QVQLVESGGGLVQAGGSLRLSCAASGRTLRRYAMGWYRQAPGKERELVAGISRNGGSTYYADSVKGRFTISRDNAKNTVYLQMNSLKPDDTAVYYCNKVAYPYSILRYGYWGLGTQVTVSS", "polyreactivity (PSR sort gate)": "high polyreactivity"}
{"sequence": "QVQLVESGGGLVQAGGSLRLSCAASGRTLRSNAMGWYRQAPGKERELVAAISSNGGSTYYADSVKGRFTISRDNAKNTVYLQMNSLKPEDTAVYYCAALSYYYSDRMDYWGQGTQVTVSS", "polyreactivity (PSR sort gate)": "low polyreactivity"}
{"sequence": "QVQLVESGGGLVQAGGSLRLSCAASGRTLRYYAMGWYRQAPGKERELVAAITSSDRTYYADSVKGRFTISRDNAKNTVYLQMNSLKPEVTAVYYCAAYRATQFGYYYWGQGTQVTVSS", "polyreactivity (PSR sort gate)": "high polyreactivity"}
{"sequence": "QVQLVESGGGLVQAGGSLRLSCAASGRTLRYYAMGWYRQAPGKERELVASISIGGSTFYADSVKGRFTISRDNAKNTVYLQMNSLKPEDTAVYYCAAENFWQTKEYDYWGQGTQVTVSS", "polyreactivity (PSR sort gate)": "low polyreactivity"}
{"sequence": "QVQLVESGGGLVQAGGSLRLSCAASGRTLSGYAMGWYRQAPGKERELVAVITSGGSTYYADSVKGRFTISRDNAKNTVYLQMNSVKPEDTAVYYCSARRGRRLQDSQYWGQGTQVTVSS", "polyreactivity (PSR sort gate)": "high polyreactivity"}
{"sequence": "QVQLVESGGGLVQAGGSLRLSCAASGRTLSHYAMGWYRQAPGKERELVAAITRSGGSTYYADSVKGRFTISRDNAKNTVYLQMNSLKPEDTAVYYCNKTLYTTYDYWGQGTQVTVSS", "polyreactivity (PSR sort gate)": "low polyreactivity"}
{"sequence": "QVQLVESGGGLVQAGGSLRLSCAASGRTLSYYAMGWYRQAPGKHRELVAAITYRAGRTYYADSVKGRFTISRDNAKYTVYLQLNSLKPEVTAVYYCYAVKSTGYGYWGQGTQVTVSS", "polyreactivity (PSR sort gate)": "high polyreactivity"}
{"sequence": "QVQLVESGGGLVQAGGSLRLSCAASGRTLTRYAMGWYRQAPGKERELVATISRCGSTNYADSVKGRFTISRDNGKNTVYLQMNSLKPEDTAVYYCAARGRLTAEFDYWGQGTQVTVSS", "polyreactivity (PSR sort gate)": "low polyreactivity"}
{"sequence": "QVQLVESGGGLVQAGGSLRLSCAASGRTLVDYGMGWYRQPPGKERELVAVITSGGSTYYADSVKGRFTISRDNAKNTVYLVMNSLKPEDTAVYYCNARHPYYTVQTGGYDYWGQGTQVTVSS", "polyreactivity (PSR sort gate)": "low polyreactivity"}
{"sequence": "QVQLVESGGGLVQAGGSLRLSCAASGRTLVGNAMGWYRQAPGKERELVAAISWSGGSTNYADSVKGRFTISRDNAKNTVYLQMNSLKPEDTAVYYCAASVYTYRYWDYYWGQGTQVTVSS", "polyreactivity (PSR sort gate)": "high polyreactivity"}
{"sequence": "QVQLVESGGGLVQAGGSLRLSCAASGRTLVKNAMGWYRQAPGKERELVAAISTSGGRTYYADSVKGRFTISRDNAKNTVYLQMNSLKPEDTAVYYCAAVLYATRPVYGFDSWGQGTQVTVSS", "polyreactivity (PSR sort gate)": "high polyreactivity"}
{"sequence": "QVQLVESGGGLVQAGGSLRLSCAASGRTLVLYVMGWYRQAPGKERELVAAISSGGSTNYADSVKGRFTISRDNAKNTVYLQMNSLKPEDTAVYYCAARFVLRRDYGYGGQGTQVTVSS", "polyreactivity (PSR sort gate)": "high polyreactivity"}
{"sequence": "QVQLVESGGGLVQAGGSLRLSCAASGRTLVPYAMGWYRQAPGKERELVAAINSSGGSTYYADSVKGRFTISRDNAKNTVYLQMNSLKPEDTAVYYCNVQSVHFRLWKDNYWGQGTQVTVSS", "polyreactivity (PSR sort gate)": "high polyreactivity"}
{"sequence": "QVQLVESGGGLVQAGGSLRLSCAASGRTLVRYTMGWYRQAPGKERELVASISQRGGTTYYADSVKGRFTISRDNAKNTVYLQMNSLKPEDTAVYYCNKASVSGSSGGGYESWGQGTQVTVSS", "polyreactivity (PSR sort gate)": "low polyreactivity"}
{"sequence": "QVQLVESGGGLVQAGGSLRLSCAASGRTLVVYAMGWYRQAPGKERELVADINWSGGRTYYADSVKGRFTISRDNAKNTVYLQMNSLKPEDTAVYYWAADLSWRQYYREYDYWGQGTQVSVSS", "polyreactivity (PSR sort gate)": "high polyreactivity"}
{"sequence": "QVQLVESGGGLVQAGGSLRLSCAASGRTLVYYAMGWYRQAPGKERELVAAISWSGSRTYYADSVKGRFTISRDNAKNTVYLQMNSLKPEDTAVYYCATLTFRTNGTMDYWGQGTQVTVSS", "polyreactivity (PSR sort gate)": "high polyreactivity"}
{"sequence": "QVQLVESGGGLVQAGGSLRLSCAASGRTLWIYAMGWYRQAPGKERELVASITTRGGSTYYADSVKGRFTISRDNAKNTVYLQMNSLKPEDTAVYYCAAEGYTYYTYYPHDYWGQGTQVTVSS", "polyreactivity (PSR sort gate)": "high polyreactivity"}
{"sequence": "QVQLVESGGGLVQAGGSLRLSCAASGRTLWSYAMGWYRQAPGKEREIVAAISRRGGITYYADSVKGRFTISRDYAKNTVFLQRISLKPVDTAVFYSAKGAQSYYGGQVKYDYWGQGTQVTVSS", "polyreactivity (PSR sort gate)": "high polyreactivity"}
{"sequence": "QVQLVESGGGLVQAGGSLRLSCAASGRTLWTNAMGWYRQAPGKEREFVAPITWRGGSTYYADSVKGRFTISRDNAKNTVNLQMNSLKPEDTAVYYCATLIPRKGSRYYHRGYWGQGSQVTVSS", "polyreactivity (PSR sort gate)": "high polyreactivity"}
{"sequence": "QVQLVESGGGLVQAGGSLRLSCAASGRTLYIYAMGWYRQAPGKERELVAAITRRGDSTYYADSVKGRFTISRDNAKNTVYLQMNSLKPVDTAVYYCAADFPDTSSQYDPAYEYWGQGTQVTVSS", "polyreactivity (PSR sort gate)": "low polyreactivity"}
{"sequence": "QVQLVESGGGLVQAGGSLRLSCAASGRTLYLYAMGWYRQEPGKERELVAGITWSGGSTYYADSVKGRFTISRDNAKNTVYLQMNSLKPEDTAVYYCAAVSYPDYDYWGQGTQVTVSS", "polyreactivity (PSR sort gate)": "low polyreactivity"}
{"sequence": "QVQLVESGGGLVQAGGSLRLSCAASGRTLYWYAMGWYRQAPGKERELVAAISSGGGSTYYADSVKGRFTISRDNAKNTVYLQMNSLKPEDTAVYYCATDEPWVYGYDYWGQGTQVTVSS", "polyreactivity (PSR sort gate)": "low polyreactivity"}
{"sequence": "QVQLVESGGGLVQAGGSLRLSCAASGRTMGQNVMGLYRQAPGKERELVAAISSNTAGNTYYADSVKGRFTISRDNAKNTVYLQMNSLKPEDTAVYYCAKVDSFEAKLDYWGQGTQVTVSS", "polyreactivity (PSR sort gate)": "low polyreactivity"}
{"sequence": "QVQLVESGGGLVQAGGSLRLSCAASGRTMYRNAMGWYRQAPGKERELVDDISRSGGSTFYADSVKGRFTISRDNAKNTVYLQMNSLKPEDTAVYYCNADYQEYVSGYDYWGQGTQVTVSS", "polyreactivity (PSR sort gate)": "high polyreactivity"}
{"sequence": "QVQLVESGGGLVQAGGSLRLSCAASGRTSAKYAMGWYRQAPGKERELVAVITKNSGSTYYADSVKGRFTISRDNAKNTVYLQMNSLKPEDTAVYYCNRVPRGINRQSRPEDYWGQGTQVTVSS", "polyreactivity (PSR sort gate)": "high polyreactivity"}
{"sequence": "QVQLVESGGGLVQAGGSLRLSCAASGRTSARYGMGWYRQAPGKERELVASIRRSGDSTYYADSVKGRFTISRDNAKNTVYLQMNSLKPEDTAVYYCAAGGKQGKRDYWGQGTQVTVSS", "polyreactivity (PSR sort gate)": "low polyreactivity"}
{"sequence": "QVQLVESGGGLVQAGGSLRLSCAASGRTSEFNAMGWYRQAPGKERELVAAITDGGNTNYADSVKGRFTISRDNAKNTVYLQMNSLKPEDTAVYYCAAERYTWWGFDYDYWGQGTQVTVSS", "polyreactivity (PSR sort gate)": "high polyreactivity"}
